From the DeepSol protein solubility set

Assay: soluble on expression in E. coli; label from the status in PepcDB or PDB records

Sequence	soluble on expression in E. coli
GSHMGDKEKETLFKDYLNLIVVKMTEWIGNLEKAEFDVFLERSTPPHSDSDGLLFLDGTKTCFQMFTQQVEVAAGTNQAKILVGVVERFSDLLTKRQKNWISKISEEIKKQINYNHKYDIDPESITPEDECPGGLVEYLIAVSNDQMKAADYAVAISSKYGKLVSKVYEKQITNHLEGTLDGFAEVAQCSSLGLITLMFDDLRKPYQEIFSKTWYMGSQAQQIADTLDEYLLDIKPQMNSVLFVNFIDNVIGETIIKFLTALSFEHSFKNKNNKFLEAMKRDFEIFYQLFVKVLDGNESKDTLITQNFTVMEFFMDLSCEPIDSILDIWQKYLEVYWDSRIDLLVGILKCRKDVSSSERKKIVQQATEMLHEYRRNMEANGVDREPTLMRRFVLEFEKQ	soluble
MGERFYLYDDTVEAAVRFVSFVGERQRFDLALIETDRFYGKWLVLDLQSNRFAILGRDDLEEPGYIEHAYQLHEQDANDLRAFLEEYLS	not soluble
MLLLTPGPTPIPERVQKALLRPMRGHLDPEVLRVNRAIQERLAALFDPGEGALVAALAGSGSLGMEAGLANLDRGPVLVLVNGAFSQRVAEMAALHGLDPEVLDFPPGEPVDPEAVARALKRRRYRMVALVHGETSTGVLNPAEAIGALAKEAGALFFLDAVTTLGMLPFSMRAMGVDYAFTGSQKCLSAPPGLAPIAASLEARKAFTGKRGWYLDLARVAEHWERGGYHHTTPVLLHYALLEALDLVLEEGVAARERRAREVYAWVLEELKARGFRPYPKASPLPTVLVVRPPEGVDADRLVRALYAEGVAVAGGIGPTRGQVLRLGLMGEGARREAYQAFLKALDRALALA	soluble
MTNFATTDDVILLWRQLSVDEIKRAEALLETVSDTLRLEASKVGKNLDEMILETPYFATVLKSVTVDIVARTLMTATQGEPMSQESQSALGYTWSGTYLVPGGGLFIKDSELKRLGLKKQRYGGIELYGEIERNNSYFSRQDD	not soluble
MSKQQPTQFINPETPGYVGFANLPNQVHRKSVKKGFEFTLMVVGESGLGKSTLINSLFLTDLYPERVIPGAAEKIERTVQIEASTVEIEERGVKLRLTVVDTPGYGDAINCRDCFKTIISYIDEQFERYLHDESGLNRRHIIDNRVHCCFYFISPFGHGLKPLDVAFMKAIHNKVNIVPVIAKADTLTLKERERLKKRILDEIEEHNIKIYHLPDAESDEDEDFKEQTRLLKASIPFSVVGSNQLIEAKGKKVRGRLYPWGVVEVENPEHNDFLKLRTMLITHMQDLQEVTQDLHYENFRSERLKRGGRKVENEDMNKDQILLEKEAELRRMQEMIARMQAQMQMQMQGGDGDGGALGHHV	soluble
MDVSMLQSPQKRIKTIQKLAVSKKDVHDFKDIFEMLEEQKEKRNINIIQYDSLDDLSGDWSEYTFFCGNFDSDLFRTLTKHQETQALFIIGASVLKNKLLKNEDLMTLRAARPLYCELMKDVTMKLAAEVPNKRELVDLVHYMGGSVRKDTVSRTNVFIAAKVEAKVQSISLVGVPTMRADWVTECWKHRDDSYFDVMEPCFVDKHRLGVFEGLSLFFHGFKQTEIDDMLRSLENTGGKLAPSPTLATHVVYNPDNDEVETLAVSSNQVHVTKEWFWVSLHRGCCAIEDNFALPTGKLHRKPLESSSVSSPIGKSLRSQNSRSLSSMRDCSVEGPTSLNMTPDYIYSNDDVENSCKSPRQPSKRLRVCMEMVETEKNYLSLLKLVVKFKEALECEISHNEFMSRSDVAMMFGKLDPILELHERIFARLTVMSNEANTLLTVVNGKKNDDKNLDFAQVWIDAKEEMKKAYPQYINSYDTIKRLFDKQDRENSKFHTFCKAKESNPEFHRLKLTDLMVKPVQRLPSVILLLKEMAKKSDSKLKNNAEEAAKAIDEVLKTANKTREKNDNFISHLSKFTDIENVPPILVAANRMFIRELVVSPIASTSPGLQQFAKMKLFLFHDVLIITKIRSEKNTMQRLARHASFASLHSRQRRPYRYIDQIQLNTMRSAFRIRAPDEIAKCLELQQQNGSTKPNVFVWCLIHRDEQGGDIDTVFESNDDEEVRDFLDDIHVKILSDCGRFFYSSDPSDMNEINDAMVSDMTTRYFRNLCGAKPQYGHGSQMNITEWSHNESFMPPPQSQSRMRRAFSNAQLTLATTLGFGRNQSRNNLGQINENTTFLQSPRVSCDPAALANMTSVGGLPGCQSESESTPKRGIRSRLTSTTFLGGRHNILGRNTSMRRQATGFAHSEKELPRSKTSSYRVTDI	not soluble
IEERMNEYFNWLKQNYIFKELDSSTEITTPFKNHLNDFIRIYADTLPNNEICLSDDGLTINELEMLGIDINTKTRTKLIQNILNQFNLKLVDKEITADVKNESFAQSKHNLIQGILKIYDLTLTTKSNVTNIFYEEVFEFLYDQKIRGLAQVSVSGESGLKYSIDYIVSETKSQPEKLVNFTNNLDFNKITNEAYIYRDIKPNRPSRNKLEPIMLIIVNDVDHPINERAQTVAEHENLEILKWSNKSKIIETL	not soluble
MESSGKSSANPNLLAETLTTMQAQLQTQTEISQQVMEDNKNQSALLKQQREMSQALLEENKRLRAAQGDQPRFVAVGEKPLNSVKLMSDLLRQLPKYHFDVSEPDSFTKWWARHKLTFTEDGAELSNRERNRMLVARLEESTFQRFVDSQRDVEDIYSVPVEDTIKALSKSFGSQRSLMIRRQSCLLISRASGASMDPLEYTNLVGEAVLDAKLSNMSTDDWSIFIFLRGMDAPEDALAKRYLMQYYEQFERKDEKLKLSDVHDEWIRYIQTQQQSKVITVTPARHPKFEVNQVDADDKKKDSRKGNYRPPYCYKCKVVGHVSKDCPQSSTNSGVTNRKTEHSEVNTLEVGSGRQTSPSLRLNVEGQQIDFTFDTGSDITLISVQNWQKIGKPHLEKVHHKICCANGTEIAVKGRVLVWFKVKGVEYTEYVYVWNRNNNLLGTSWMRHSPQMRDALAVMVNHISTVDNSKQNSHSFSRIPTGYKDRAENVGRHVVASAPRSSKRQYVRFARNKAFQIGQLCLARVQGEHDFGWIYGVVQRQVNGVLYEVQLGSRIQRIHTNQLRHICGRRSRGNDYASSFIENPCKLSLLENIPRSSCRQKFVAQGVRGEGREANPVLVSDSSVFGFSAPDLSACESVGSRSAREVVSSVAGNARNASGANITTIHVTESKSSLKKSHRRRRRVAKSRQSYTAGSSPIKETHLDPLLESDVASDGERFQPGILLRHSLRQSHPRQVVRGSAPNTDHVSTRRRGRDTASGRDAPSPGIISGFLSYKRGDVVDGT	soluble
MGSDKIHHHHHHMKYYICVCVFLLLNACNSDFSTNQEDIKYPSDKEKSKSNMEASSKEEDPNKKIKNTLLNDLINLIEIANEHKEKYEKRMQEEPSDQYGILAFQELDLSVGKISEDTPQSKKFRKNTYSPLSAIDVNKLKDLSEIIRNSGQIQGLFNIFNRFGGIFDDSLNHVYSKKDILGGLEILDLDKLKNSFEKLLSIKETFSKMLNQLLLDYKNDKDHIRTETNKLKSHTTALFEQLDKKEDEAYEPKNQIFSISNL	not soluble
MYCPFCHNDQSRVIDSRVIDSGSAIRRRRECTQCKNRFTTVEKAQLLVVKRNGLTEPFSREKVIVGVRRACQGRDVSDDALKRLAQQVEERVRLHGSSQIHANEIGLAILEPLRELDEVAYLRFASVYKSFESADDFESEIRLMRRRDRSN	not soluble
MPIQRREFIAAIGTGALATTAGCAQSGEGSGQTEAETEAESGGGGQPGVAGETLTLTTTTSTYDTGLLDEIHPDFEDMYGVSVDAVAQGTGAALESARNGDSDIVMVHARGLEDDFMRNGYGINRRDLMFNDFVIVGPEDDPAGIQGMGSATEALTTIAESESQFVSRGDNSGTHTKELNLWEAAGTEPGGNWYQETGTGMGEALNIANQQGAYTLSDRGTYISQRSEIDLVILVQGPIEDGPEILANPYGIMAVNPGVHDNANYDLAMAYIGWITSPGTQDAISNYQVNGEQLFFPEAVSEDPNFQQYVPEGWSSDAGE	not soluble
GMHSNINTLIANHRAGHALDQAFYTDAEVFQTDLQEIFYKEWLFAIPACELDKPGSYVTHQVGNYNVIIVRGADNVIRAFHNACRHRGSVICKAKKGNNPKLVCPYHQWTYELDGRLLWARDMGPDFEPSRHGLKTVHCRELAGLIYICLADEAPDFERFAEVARPYLEVHDLSNAKVAHESSIVERGNWKLVWENNRECYHCGGNHPALCRTFPDDPSVTGIEGGETPSNLQAHFDRCEQAGMPSGFHLSGDGQFRVARMPLKEGAESYTMDGKTAVRRWLGRAAFADAGSLLKFHYPTTWNHFLSDHSIVFRVTPISPTETEVTTKWLVHKDAVEGVDYDLQRLTEVWIATNDEDREVVEFNQMGINSPAYEPGPYSPTQESGVLQFVEWYLSTLKRNSGPHAVAAE	soluble
MGSDKIHHHHHHMIRSLWTAKTGLESQQVKLDVISNNLSNVSTNGFKRSRPVFEDLLYQNVRQPGAQASAVDTLPSGLQVGTGVRPVATERLHTQGGLQNTDNSKDLAINGQGFFAVQMPDGTSAYTRDGSFQIDENGQMVTAGGYPLDPPIVIPENALSVSISQDGVVSVTQPGDTAAQEVGQLTLSKFINPAGLQSMGENLYQETDASGPRNDLIPGMEGAGRLYQGYVETSNVNVVEEMVSMIETQRAYEINSKAVETSDQMLSRLTQL	not soluble
MSLELSQKKWKSFKISEIFRIESCKCGNASLLEDGDDLFYRGAKKNDNGVIRRVKRIDSLVSKGNCIMFICDGDGSCGYTNYISDDFIGSTTTSVGYNENLNVYIGTFITTILDMHKYKYSHSRKYRNSLLNEILILPINNDGIPDWKWIEEYMKSLSGSINTQIYDIIDTADGDRNIVKFFINKIEASDFKLWLQDNANMDVNNQMSLKDVKWKGFKLSELFNIERGCRLKKSNRITGNTLLITAGKENHGIAMYVEPPMNSEGNLINKIYKDRLTIDMFCNSFYQSENFICDDNILVLIEKQKMTKNIKHFIATILSMDIYKFSFTRQYRQKDFNKHIIMLPINDKGNLDWEWIEEYMKSLPYSDKETRLFVNTIEGHHHHHH	soluble
MDFMISHFCDEQNHQPLYKTRRQSISDSKNGPTLLSSSLPTNDECSDSDTENRLPPETELGNIEYKAKLVNPTTSRIQHLITQMKWRLREGQGEAIYEIGVEDGGIMSGLTDEELNDSLRTLRTMAQALGASMVILTEKDVTVKGSNSRRTVVEVLVRKVPESQQFIEVRLAVVGGCDVGKSTLCGVLTQGCLDDGNGKARIGIFRFPHEVRTGKTSSVCNDVIGFDNRGKLVNYAQNSLEEMVEKSSKLVTLIDLAGDAKYQKTTIHGLTGYTPHFACLVVAADRGITWATREHLGLIAALNIPMFVLITKMDLVDRQGLKKIIKDVSNLVAKAGMTAREKRVKTKRDAVKAAQELCVGSIVPVLAVSSVSGEGFRCLRTLLNCLSTAGTAESRIQLVGLPAFFTIEELYNVPHVGQVVGGMLSEGQLHEGADVLVGPMKDGTFEKITVGSIRRSRQAVGCVNPGEAASISLNLPDGVSLRRGMVLAEIDHQPPVCYEFTANLLLLCHSTKYICEGFQATVFIGSVCTTAIITHIDDADCIRPGKWAVVKMCFAYQPEVIREGSPIILRQGKTKGMGEVLKVFPCTQ	not soluble
MRNEMHLQFSARSENESFARVTVAAFVAQLDPTMDELTEIKTVVSEAVTNAIIHGYNNDPNGIVSISVIIEDGVVHLTVRDEGVGIPDIEEARQPLFTTKPELERSGMGFTIMENFMDEVIVESEVNKGTTVYLKKHIVKSKRYLEGSSF	soluble
MSLADPDGGERSRRAARAASLSSSSRPTSVSAKQPCRVKFICRVLRPVVQGFLTSLGYRAAIGRAPSARQLRDYLLVPEVTRLHAENYGFYGRRKMHALMRRQGWVIGRDQTERLMRLAGVRGVRKSKRVLTTHSDKTTVLPADLVNRRFTAPAPRRLWVCDVTYVATWSGFAYVAFVTDVYSRRIVGWNVAATLRSEILPMQALDMAAWGAGGDLTSLIHHADHGSNSEGHHHHHH	soluble
